According to US20240270846A1 (published 2024):
Changes are numbered by the printed parent chain. In names and notes the source's numbering stands.

B1: GLS3000 N28M (Kabat) L chain altered form, one-arm antibody with CE115HA000 (antibody, human IgG1, kappa, L234A L235A, N297A, name in Kabat numbering)
heavy: QVQLVESGGGVVQPGRSLRLSCAASGFTFSNAWMHWVRQAPGKGLEWVAQIKAKSNNYATYYAESVKGRFTISRDDSKNSLYLQMNSLKTEDTAVYYCRYVHYGAYYGVDAWGQGTTVTVSSASTKGPSVFPLAPSSKSTSGGTAALGCLVKDYFPEPVTVSWNSGALTSGVHTFPAVLQSSGLYSLSSVVTVPSSSLGTQTYICNVNHKPSNTKVDKKVEPKSCDKTHTCPPCPAPEAAGGPSVFLFPPKPKDTLMISRTPEVTCVVVDVSHEDPEVKFNWYVDGVEVHNAKTKPREEQYASTYRVVSVLTVLHQDWLNGKEYKCKVSNKALPAPIEKTISKAKGQPREPQVYTLPPSRCELTKNQVSLSCAVKGFYPSDIAVEWESNGQPENNYKTTPPVLDSDGSFFLVSKLTVDKSRWQQGNVFSCSVMHEALHNHYTQKSLSLSPDYKDDDDK
chain: EPKSSDKTHTCPPCPAPELLGGPSVFLFPPKPKDTLMISRTPEVTCVVVDVSHEDPEVKFNWYVDGVEVHNAKTKPREEQYNSTYRVVSVLTVLHQDWLNGKEYKCKVSNKALPAPIEKTISKAKGQPREPQVCTLPPSRDELTKNQVSLWCLVKGFYPSDIAVEWESNGQPENNYKTTPPVLDSDGSFFLYSKLTVDKSRWQQGNVFSCSVMHEALHNRYTQKSLSLSP
light: DIVMTQSPLSLPVTPGEPASISCRSSQSLVHSMRNTYLHWYQQKPGQAPRLLIYKVSNRFSGVPDRFSGSGSGTDFTLKISRVEAEDVGVYYCGQGTQVPYTFGQGTKLEIKRTVAAPSVFIFPPSDEQLKSGTASVVCLLNNFYPREAKVQWKVDNALQSGNSQESVTEQDSKDSTYSLSSTLTLSKADYEKHKVYACEVTHQGLSSPVTKSFNRGEC
notes: one-arm antibody
B2: GLS3000 N30L (Kabat) L chain altered form, one-arm antibody with CE115HA000 (antibody, human IgG1, kappa, L234A L235A, N297A, name in Kabat numbering)
heavy: B1 heavy
chain: B1 chain
light: B1 light with M33N, N35L
notes: one-arm antibody
B3: GLS3000 N28T (Kabat) L chain altered form, one-arm antibody with CE115HA000 (antibody, human IgG1, kappa, L234A L235A, N297A, name in Kabat numbering)
heavy: B1 heavy
chain: B1 chain
light: B1 light with M33T
notes: one-arm antibody
B4: GLS3000 N28Q (Kabat) L chain altered form, one-arm antibody with CE115HA000 (antibody, human IgG1, kappa, L234A L235A, N297A, name in Kabat numbering)
heavy: B1 heavy
chain: B1 chain
light: B1 light with M33Q
notes: one-arm antibody
B5: GLS3000 N30V (Kabat) L chain altered form, one-arm antibody with CE115HA000 (antibody, human IgG1, kappa, L234A L235A, N297A, name in Kabat numbering)
heavy: B1 heavy
chain: B1 chain
light: B1 light with M33N, N35V
notes: one-arm antibody
B6: GLS3000 N30W (Kabat) L chain altered form, one-arm antibody with CE115HA000 (antibody, human IgG1, kappa, L234A L235A, N297A, name in Kabat numbering)
heavy: B1 heavy
chain: B1 chain
light: B1 light with M33N, N35W
notes: one-arm antibody
B7: GLS3000 N30D (Kabat) L chain altered form, one-arm antibody with CE115HA000 (antibody, human IgG1, kappa, L234A L235A, N297A, name in Kabat numbering)
heavy: B1 heavy
chain: B1 chain
light: B1 light with M33N, N35D
notes: one-arm antibody
B8: GLS3000 Q27P (Kabat) L chain altered form, one-arm antibody with CE115HA000 (antibody, human IgG1, kappa, L234A L235A, N297A, name in Kabat numbering)
heavy: B1 heavy
chain: B1 chain
light: B1 light with Q27P, M33N
notes: one-arm antibody
B9: GLS3000 N28V (Kabat) L chain altered form, one-arm antibody with CE115HA000 (antibody, human IgG1, kappa, L234A L235A, N297A, name in Kabat numbering)
heavy: B1 heavy
chain: B1 chain
light: B1 light with M33V
notes: one-arm antibody
B10: GLS3000 N30G (Kabat) L chain altered form, one-arm antibody with CE115HA000 (antibody, human IgG1, kappa, L234A L235A, N297A, name in Kabat numbering)
heavy: B1 heavy
chain: B1 chain
light: B1 light with M33N, N35G
notes: one-arm antibody
B11: GLS3000 R24D (Kabat) L chain altered form, one-arm antibody with CE115HA000 (antibody, human IgG1, kappa, L234A L235A, N297A, name in Kabat numbering)
heavy: B1 heavy
chain: B1 chain
light: B1 light with R24D, M33N
notes: one-arm antibody
B12: GLS3000 N28W (Kabat) L chain altered form, one-arm antibody with CE115HA000 (antibody, human IgG1, kappa, L234A L235A, N297A, name in Kabat numbering)
heavy: B1 heavy
chain: B1 chain
light: B1 light with M33W
notes: one-arm antibody
B13: GLS3000 N30S (Kabat) L chain altered form, one-arm antibody with CE115HA000 (antibody, human IgG1, kappa, L234A L235A, N297A, name in Kabat numbering)
heavy: B1 heavy
chain: B1 chain
light: B1 light with M33N, N35S
notes: one-arm antibody
B14: GLS3000 N28P (Kabat) L chain altered form, one-arm antibody with CE115HA000 (antibody, human IgG1, kappa, L234A L235A, N297A, name in Kabat numbering)
heavy: B1 heavy
chain: B1 chain
light: B1 light with M33P
notes: one-arm antibody
B15: GLS3000 Q27L (Kabat) L chain altered form, one-arm antibody with CE115HA000 (antibody, human IgG1, kappa, L234A L235A, N297A, name in Kabat numbering)
heavy: B1 heavy
chain: B1 chain
light: B1 light with Q27L, M33N
notes: one-arm antibody
B16: GLS3000 N30P (Kabat) L chain altered form, one-arm antibody with CE115HA000 (antibody, human IgG1, kappa, L234A L235A, N297A, name in Kabat numbering)
heavy: B1 heavy
chain: B1 chain
light: B1 light with M33N, N35P
notes: one-arm antibody
B17: GLS3000 Q27R (Kabat) L chain altered form, one-arm antibody with CE115HA000 (antibody, human IgG1, kappa, L234A L235A, N297A, name in Kabat numbering)
heavy: B1 heavy
chain: B1 chain
light: B1 light with Q27R, M33N
notes: one-arm antibody
B18: GLS3000 N30Q (Kabat) L chain altered form, one-arm antibody with CE115HA000 (antibody, human IgG1, kappa, L234A L235A, N297A, name in Kabat numbering)
heavy: B1 heavy
chain: B1 chain
light: B1 light with M33N, N35Q
notes: one-arm antibody
B19: GLS3000 R24A (Kabat) L chain altered form, one-arm antibody with CE115HA000 (antibody, human IgG1, kappa, L234A L235A, N297A, name in Kabat numbering)
heavy: B1 heavy
chain: B1 chain
light: B1 light with R24A, M33N
notes: one-arm antibody
B20: GLS3000 N30K (Kabat) L chain altered form, one-arm antibody with CE115HA000 (antibody, human IgG1, kappa, L234A L235A, N297A, name in Kabat numbering)
heavy: B1 heavy
chain: B1 chain
light: B1 light with M33N, N35K
notes: one-arm antibody
B21: GLS3000 N30M (Kabat) L chain altered form, one-arm antibody with CE115HA000 (antibody, human IgG1, kappa, L234A L235A, N297A, name in Kabat numbering)
heavy: B1 heavy
chain: B1 chain
light: B1 light with M33N, N35M
notes: one-arm antibody
B22: GLS3000 N30R (Kabat) L chain altered form, one-arm antibody with CE115HA000 (antibody, human IgG1, kappa, L234A L235A, N297A, name in Kabat numbering)
heavy: B1 heavy
chain: B1 chain
light: B1 light with M33N, N35R
notes: one-arm antibody
B23: GLS3000 N30E (Kabat) L chain altered form, one-arm antibody with CE115HA000 (antibody, human IgG1, kappa, L234A L235A, N297A, name in Kabat numbering)
heavy: B1 heavy
chain: B1 chain
light: B1 light with M33N, N35E
notes: one-arm antibody
B24: GLS3000 Q27D (Kabat) L chain altered form, one-arm antibody with CE115HA000 (antibody, human IgG1, kappa, L234A L235A, N297A, name in Kabat numbering)
heavy: B1 heavy
chain: B1 chain
light: B1 light with Q27D, M33N
notes: one-arm antibody
B25: GLS3000 N30H (Kabat) L chain altered form, one-arm antibody with CE115HA000 (antibody, human IgG1, kappa, L234A L235A, N297A, name in Kabat numbering)
heavy: B1 heavy
chain: B1 chain
light: B1 light with M33N, N35H
notes: one-arm antibody
B26: GLS3000 N28Y (Kabat) L chain altered form, one-arm antibody with CE115HA000 (antibody, human IgG1, kappa, L234A L235A, N297A, name in Kabat numbering)
heavy: B1 heavy
chain: B1 chain
light: B1 light with M33Y
notes: one-arm antibody
B27: GLS3000 N30Y (Kabat) L chain altered form, one-arm antibody with CE115HA000 (antibody, human IgG1, kappa, L234A L235A, N297A, name in Kabat numbering)
heavy: B1 heavy
chain: B1 chain
light: B1 light with M33N, N35Y
notes: one-arm antibody
B28: GLS3000 Q27E (Kabat) L chain altered form, one-arm antibody with CE115HA000 (antibody, human IgG1, kappa, L234A L235A, N297A, name in Kabat numbering)
heavy: B1 heavy
chain: B1 chain
light: B1 light with Q27E, M33N
notes: one-arm antibody
B29: GLS3000 N30A (Kabat) L chain altered form, one-arm antibody with CE115HA000 (antibody, human IgG1, kappa, L234A L235A, N297A, name in Kabat numbering)
heavy: B1 heavy
chain: B1 chain
light: B1 light with M33N, N35A
notes: one-arm antibody
B30: GLS3000 N30T (Kabat) L chain altered form, one-arm antibody with CE115HA000 (antibody, human IgG1, kappa, L234A L235A, N297A, name in Kabat numbering)
heavy: B1 heavy
chain: B1 chain
light: B1 light with M33N, N35T
notes: one-arm antibody
B31: GLS3000 R24E (Kabat) L chain altered form, one-arm antibody with CE115HA000 (antibody, human IgG1, kappa, L234A L235A, N297A, name in Kabat numbering)
heavy: B1 heavy
chain: B1 chain
light: B1 light with R24E, M33N
notes: one-arm antibody
B32: GLS3000 N53A (Kabat) L chain altered form, one-arm antibody with CE115HA000 (antibody, human IgG1, kappa, L234A L235A, N297A, name in Kabat numbering)
heavy: B1 heavy
chain: B1 chain
light: B1 light with M33N, N58A
notes: one-arm antibody
B33: GLS3000 N28S (Kabat) L chain altered form, one-arm antibody with CE115HA000 (antibody, human IgG1, kappa, L234A L235A, N297A, name in Kabat numbering)
heavy: B1 heavy
chain: B1 chain
light: B1 light with M33S
notes: one-arm antibody
B34: GLS3000 N30I (Kabat) L chain altered form, one-arm antibody with CE115HA000 (antibody, human IgG1, kappa, L234A L235A, N297A, name in Kabat numbering)
heavy: B1 heavy
chain: B1 chain
light: B1 light with M33N, N35I
notes: one-arm antibody

molecular target: T1, CD3 epsilon homodimer protein (UniProt P07766 23-126); assay: SPR Biacore T200, CD3 epsilon homodimer immobilized; vs unaltered GLS3000;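 further: antibody variants flowed as analyte over CD3 epsilon homodimer amine-coupled to a CM4 chip, at 25 °C in HBS-EP+ running buffer, fitted with Biacore T200 Evaluation Software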
T1 construct: construct not described; homodimer as printed; also called CD3 (CD3 epsilon)
T1 sequence (P07766 23-126): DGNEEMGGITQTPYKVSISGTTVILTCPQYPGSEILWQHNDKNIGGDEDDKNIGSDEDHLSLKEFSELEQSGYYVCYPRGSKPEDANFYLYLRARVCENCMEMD

Binder	KD ratio to GLS3000 (Affinity up)
B1	3.29
B2	1.19
B3	2.67
B4	3.48
B5	2.62
B6	0.97
B7	3.82
B8	2.16
B9	3.73
B10	2.1
B11	0.83
B12	3.17
B13	10.6
B14	4.18
B15	0.86
B16	12.1
B17	1.06

Binder	KD ratio to GLS3000 (Affinity up)
B18	1
B19	1
B20	1.35
B21	1.2
B22	1.73
B23	2.83
B24	0.89
B25	1.08
B26	3.89
B27	1.03
B28	0.99
B29	1.16
B30	12.7
B31	0.89
B32	0.82
B33	4.3
B34	1.24
